In this assay the target is biotinylated SARS-CoV-2 prototype RBD (SARS-CoV-2 (prototype), UniProt P0DTC2, biotin (biotinylated; site not stated)). Nature of the assay: BLI. The conditions noted are these: both partners purified.

The results in this text go back to publication PMC10382582 (Cell Discovery, 2023).

B1: pan-sarbecovirus mAb S2H97 (antibody, V domains shown)
VH: QVRLVQSGAEVKKSGESLKISCKGSGYSFTSYWIGWVRQMPGKGLEWMGIIYPGDSDTRYSPSFQGQVTISADKSISTVYLQWSSLKASDTAMYYCARQWSHYTYDYYYWGQGTLVTISS
VL: QSVLTQPASVSGSPGQSITISCTGISSDVGGYNSVSWYQQHPGKAPKLMIYDVTNRPSGVSNRFSGSKSGNTASLTISGLQAEDEADYYCSSYTSSSTPPYVFGTGTKVSVL
For B1, the binding result is listed as “binds”.
